Data: patent publication US20240060059A1
Where “and” joins values, the source holds several entries; their conditions need not be identical. Equal entries are not always repeated.

Tests used:
Assay in all cases: cell-based or functional assay
[196-297]-FRB = [196-297]-FRB (UniProt P42345)
[1] = target: spHT 80 C-terminal fragment fused to FRB or FKBP
[2] = target: spHT 133 C-terminal fragment fused to FRB or FKBP
[3] = target: spHT 145 C-terminal fragment fused to FRB or FKBP
[4] = target: spHT 157 C-terminal fragment fused to FRB or FKBP
[5] = target: spHT 180 C-terminal fragment fused to FRB or FKBP

Chain of UniProt P42345 (P42345 other isoform, or with tags, fused parts or gaps limits assumed): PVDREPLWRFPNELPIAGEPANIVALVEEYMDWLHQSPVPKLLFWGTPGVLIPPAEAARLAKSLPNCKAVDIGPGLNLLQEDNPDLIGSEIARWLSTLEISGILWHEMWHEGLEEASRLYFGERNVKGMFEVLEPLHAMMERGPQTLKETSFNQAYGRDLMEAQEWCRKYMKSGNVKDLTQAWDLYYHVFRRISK

[1-195]-FKBP (from UniProt P62942 2-108)
fold fluorescence signal increase (JF646 ligand) in the presence of 50 nM rapamycin, E. coli lysates ([196-297]-FRB): 4.7 fold and > 2 fold

spHT 80 N-terminal fragment fused to FRB or FKBP
fold fluorescence signal increase (JF646 ligand) in the presence of 50 nM rapamycin, E. coli lysates [1]: > 2 fold

spHT 133 N-terminal fragment fused to FRB or FKBP
fold fluorescence signal increase (JF646 ligand) in the presence of 50 nM rapamycin, E. coli lysates [2]: > 2 fold

spHT 145 N-terminal fragment fused to FRB or FKBP
fold fluorescence signal increase (JF646 ligand) in the presence of 50 nM rapamycin, E. coli lysates [3]: > 2 fold

spHT 157 N-terminal fragment fused to FRB or FKBP
fold fluorescence signal increase (JF646 ligand) in the presence of 50 nM rapamycin, E. coli lysates [4]: > 2 fold

spHT 180 N-terminal fragment fused to FRB or FKBP
fold fluorescence signal increase (JF646 ligand) in the presence of 50 nM rapamycin, E. coli lysates [5]: > 2 fold
